Percent localized to the peroxisome data for 4 molecules are collected here from paper PMC9396825.

Experiment [1] deals with Pan1-FKBP (yeast Eps15-like protein Pan1p with a C-terminal FKBP tag) (yeast) (UniProt P32521). Nature of the experiment: inducible peroxisome redistribution assay.
Experiment [2] has as its target T1, Pan1-FKBP (yeast Eps15-like protein Pan1p with a C-terminal FKBP tag) (yeast), P32521.
T1 chain: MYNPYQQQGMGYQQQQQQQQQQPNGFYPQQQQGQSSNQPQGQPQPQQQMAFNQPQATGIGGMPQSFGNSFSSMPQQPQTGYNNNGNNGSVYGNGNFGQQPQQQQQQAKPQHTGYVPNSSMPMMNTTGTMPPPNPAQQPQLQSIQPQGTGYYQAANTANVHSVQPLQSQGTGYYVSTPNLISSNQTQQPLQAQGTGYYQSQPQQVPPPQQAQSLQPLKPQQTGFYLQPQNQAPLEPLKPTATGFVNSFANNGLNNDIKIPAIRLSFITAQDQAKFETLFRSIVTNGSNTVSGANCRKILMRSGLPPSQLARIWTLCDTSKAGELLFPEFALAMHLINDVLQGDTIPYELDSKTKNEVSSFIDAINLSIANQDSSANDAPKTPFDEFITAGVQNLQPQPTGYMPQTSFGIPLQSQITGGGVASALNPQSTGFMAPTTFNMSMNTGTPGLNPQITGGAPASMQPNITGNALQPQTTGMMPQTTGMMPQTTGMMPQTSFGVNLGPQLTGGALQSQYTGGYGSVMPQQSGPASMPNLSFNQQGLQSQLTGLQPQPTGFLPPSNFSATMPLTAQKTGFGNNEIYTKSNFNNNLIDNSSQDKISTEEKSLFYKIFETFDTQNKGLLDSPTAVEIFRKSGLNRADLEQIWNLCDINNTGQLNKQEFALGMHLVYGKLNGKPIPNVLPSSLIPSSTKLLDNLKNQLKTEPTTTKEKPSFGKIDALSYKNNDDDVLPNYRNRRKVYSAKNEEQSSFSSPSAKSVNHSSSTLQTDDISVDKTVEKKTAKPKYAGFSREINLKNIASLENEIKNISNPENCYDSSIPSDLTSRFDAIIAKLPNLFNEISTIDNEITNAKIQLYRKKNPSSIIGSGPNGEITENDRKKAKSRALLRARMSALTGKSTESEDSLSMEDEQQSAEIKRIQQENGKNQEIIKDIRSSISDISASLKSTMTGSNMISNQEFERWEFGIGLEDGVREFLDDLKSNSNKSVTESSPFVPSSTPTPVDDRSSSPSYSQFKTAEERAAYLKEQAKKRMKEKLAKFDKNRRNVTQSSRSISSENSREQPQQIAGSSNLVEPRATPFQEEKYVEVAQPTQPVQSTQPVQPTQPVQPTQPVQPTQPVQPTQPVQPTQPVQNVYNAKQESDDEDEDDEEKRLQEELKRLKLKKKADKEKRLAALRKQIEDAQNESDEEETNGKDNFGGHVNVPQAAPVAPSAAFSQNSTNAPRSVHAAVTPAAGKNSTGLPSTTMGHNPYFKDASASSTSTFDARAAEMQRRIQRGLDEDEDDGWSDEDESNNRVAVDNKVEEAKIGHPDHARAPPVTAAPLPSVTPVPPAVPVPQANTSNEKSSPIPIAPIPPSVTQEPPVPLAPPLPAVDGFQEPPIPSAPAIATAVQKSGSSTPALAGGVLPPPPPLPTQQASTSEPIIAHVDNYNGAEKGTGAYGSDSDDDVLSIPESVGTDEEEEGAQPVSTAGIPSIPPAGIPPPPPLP
Nature of the experiment: inducible peroxisome redistribution assay. Particulars: remark: other sources report otherwise.

Consider “GFP-fused Sla2p (from UniProt P33338 1-968) (natural protein)”, for which, in experiment [1], the percent localized to the peroxisome came to 72%. Same read-out and setting: the figure for “Ent1-GFP (from UniProt Q12518 1-454) (natural protein)” is 64%. Regarding “GFP-tagged Ent2p (from UniProt Q05785 1-613) (natural protein)”, in experiment [1], the percent localized to the peroxisome turned out to be 66.7%.

B1: Sla1-GFP, P32790 1-1244 (natural protein)
chain: MTVFLGIYRAVYAYEPQTPEELAIQEDDLLYLLQKSDIDDWWTVKKRVIGSDSEEPVGLVPSTYIEEAPVLKKVRAIYDYEQVQNADEELTFHENDVFDVFDDKDADWLLVKSTVSNEFGFIPGNYVEPENGSTSKQEQAPAAAEAPAATPAAAPASAAVLPTNFLPPPQHNDRARMMQSKEDQAPDEDEEGPPPAMPARPTATTETTDATAAAVRSRTRLSYSDNDNDDEEDDYYYNSNSNNVGNHEYNTEYHSWNVTEIEGRKKKKAKLSIGNNKINFIPQKGTPHEWSIDKLVSYDNEKKHMFLEFVDPYRSLELHTGNTTTCEEIMNIIGEYKGASRDPGLREVEMASKSKKRGIVQYDFMAESQDELTIKSGDKVYILDDKKSKDWWMCQLVDSGKSGLVPAQFIEPVRDKKHTESTASGIIKSIKKNFTKSPSRSRSRSRSKSNANASWKDDELQNDVVGSAAGKRSRKSSLSSHKKNSSATKDFPNPKKSRLWVDRSGTFKVDAEFIGCAKGKIHLHKANGVKIAVAADKLSNEDLAYVEKITGFSLEKFKANDGSSSRGTDSRDSERERRRRLKEQEEKERDRRLKERELYELKKARELLDEERSRLQEKELPPIKPPRPTSTTSVPNTTSVPPAESSNNNNSSNKYDWFEFFLNCGVDVSNCQRYTINFDREQLTEDMMPDINNSMLRTLGLREGDIVRVMKHLDKKFGRENIASIPTNATGNMFSQPDGSLNVATSPETSLPQQLLPQTTSPAQTAPSTSAETDDAWTVKPASKSESNLLSKKSEFTGSMQDLLDLQPLEPKKAAASTPEPNLKDLEPVKTGGTTVPAAPVSSAPVSSAPAPLDPFKTGGNNILPLSTGFVMMPMITGGDMLPMQRTGGFVVPQTTFGMQSQVTGGILPVQKTGNGLIPISNTGGAMMPQTTFGAAATVLPLQKTGGGLIPIATTGGAQFPQTSFNVQGQQQLPTGSILPVQKTANGLISANTGVSMPTVQRTGGTMIPQTSFGVSQQLTGGAMMTQPQNTGSAMMPQTSFNAVPQITGGAMMPQTSFNALPQVTGGAMMPLQRTGGALNTFNTGGAMIPQTSFSSQAQNTGGFRPQSQFGLTLQKTGGIAPLNQNQFTGGAMNTLSTGGVLQQQQPQTMNTFNTGGVMQELQMMTTFNTGGAMQQPQMMNTFNTDGIMQQPQMMNTFNTGGAMQQPQQQALQNQPTGFGFGNGPQQSRQANIFNATASNPFGF
In experiment [2], B1 displayed a percent localized to the peroxisome of 63.3%.
